B1: His-IRBIT: purified His-tagged IRBIT expressed in Sf9 cells (protein)
chain: MSMPDAMPLPGVGEELKQAKEIEDAEKYSFMATVTKAPKKQIQFADDMQEFTKFPTKTGRRSLSRSISQSSTDSYSSAASYTDSSDDEVSPREKQQTNSKGSSNFCVKNIKQAEFGRREIEIAEQDMSALISLRKRAQGEKPLAGAKIVGCTHITAQTAVLIETLCALGAQCRWSACNIYSTQNEVAAALAEAGVAVFAWKGESEDDFWWCIDRCVNMDGWQANMILDDGGDLTHWVYKKYPNVFKKIRGIVEESVTGVHRLYQLSKAGKLCVPAMNVNDSVTKQKFDNLYCCRESILDGLKRTTDVMFGGKQVVVCGYGEVGKGCCAALKALGAIVYITEIDPICALQACMDGFRVVKLNEVIRQVDVVITCTGNKNVVTREHLDRMKNSCIVCNMGHSNTEIDVTSLRTPELTWERVRSQVDHVIWPDGKRVVLLAEGRLLNLSCSTVPTFVLSITATTQALALIELYNAPEGRYKQDVYLLPKKMDEYVASLHLPSFDAHLTELTDDQAKYLGLNKNGPFKPNYYRY
modifications: left off: small tags and cut ends
notes: purified His-tagged IRBIT expressed in Sf9 cells
B2: GST-IRBIT: N-terminally GST-tagged full-length IRBIT expressed in Escherichia coli (protein, UniProt O43865 1-530, looked up)
chain: B1 chain
modifications: full-length N-terminal GST tag
notes: N-terminally GST-tagged full-length IRBIT expressed in Escherichia coli
B3: IRBIT-His: C-terminally His-tagged full-length IRBIT expressed in Escherichia coli (protein, UniProt O43865 1-530, looked up)
chain: B1 chain
modifications: full-length C-terminal His tag
notes: C-terminally His-tagged full-length IRBIT expressed in Escherichia coli

Legend:
[1] = target: T1, GST-EL (IP3R) (Mus musculus, UniProt P11881, N1264K); experiment: [3H]IP3 binding to GST-EL
T1 construct: construct a GST-IP3R1 (1-2217) vector (termed GST-EL); made in house; host or cells: GST-EL: Sf9 cells; His-IRBIT: Sf9 cells or E. coli
T1 sequence (P11881 1-2217 N1264K): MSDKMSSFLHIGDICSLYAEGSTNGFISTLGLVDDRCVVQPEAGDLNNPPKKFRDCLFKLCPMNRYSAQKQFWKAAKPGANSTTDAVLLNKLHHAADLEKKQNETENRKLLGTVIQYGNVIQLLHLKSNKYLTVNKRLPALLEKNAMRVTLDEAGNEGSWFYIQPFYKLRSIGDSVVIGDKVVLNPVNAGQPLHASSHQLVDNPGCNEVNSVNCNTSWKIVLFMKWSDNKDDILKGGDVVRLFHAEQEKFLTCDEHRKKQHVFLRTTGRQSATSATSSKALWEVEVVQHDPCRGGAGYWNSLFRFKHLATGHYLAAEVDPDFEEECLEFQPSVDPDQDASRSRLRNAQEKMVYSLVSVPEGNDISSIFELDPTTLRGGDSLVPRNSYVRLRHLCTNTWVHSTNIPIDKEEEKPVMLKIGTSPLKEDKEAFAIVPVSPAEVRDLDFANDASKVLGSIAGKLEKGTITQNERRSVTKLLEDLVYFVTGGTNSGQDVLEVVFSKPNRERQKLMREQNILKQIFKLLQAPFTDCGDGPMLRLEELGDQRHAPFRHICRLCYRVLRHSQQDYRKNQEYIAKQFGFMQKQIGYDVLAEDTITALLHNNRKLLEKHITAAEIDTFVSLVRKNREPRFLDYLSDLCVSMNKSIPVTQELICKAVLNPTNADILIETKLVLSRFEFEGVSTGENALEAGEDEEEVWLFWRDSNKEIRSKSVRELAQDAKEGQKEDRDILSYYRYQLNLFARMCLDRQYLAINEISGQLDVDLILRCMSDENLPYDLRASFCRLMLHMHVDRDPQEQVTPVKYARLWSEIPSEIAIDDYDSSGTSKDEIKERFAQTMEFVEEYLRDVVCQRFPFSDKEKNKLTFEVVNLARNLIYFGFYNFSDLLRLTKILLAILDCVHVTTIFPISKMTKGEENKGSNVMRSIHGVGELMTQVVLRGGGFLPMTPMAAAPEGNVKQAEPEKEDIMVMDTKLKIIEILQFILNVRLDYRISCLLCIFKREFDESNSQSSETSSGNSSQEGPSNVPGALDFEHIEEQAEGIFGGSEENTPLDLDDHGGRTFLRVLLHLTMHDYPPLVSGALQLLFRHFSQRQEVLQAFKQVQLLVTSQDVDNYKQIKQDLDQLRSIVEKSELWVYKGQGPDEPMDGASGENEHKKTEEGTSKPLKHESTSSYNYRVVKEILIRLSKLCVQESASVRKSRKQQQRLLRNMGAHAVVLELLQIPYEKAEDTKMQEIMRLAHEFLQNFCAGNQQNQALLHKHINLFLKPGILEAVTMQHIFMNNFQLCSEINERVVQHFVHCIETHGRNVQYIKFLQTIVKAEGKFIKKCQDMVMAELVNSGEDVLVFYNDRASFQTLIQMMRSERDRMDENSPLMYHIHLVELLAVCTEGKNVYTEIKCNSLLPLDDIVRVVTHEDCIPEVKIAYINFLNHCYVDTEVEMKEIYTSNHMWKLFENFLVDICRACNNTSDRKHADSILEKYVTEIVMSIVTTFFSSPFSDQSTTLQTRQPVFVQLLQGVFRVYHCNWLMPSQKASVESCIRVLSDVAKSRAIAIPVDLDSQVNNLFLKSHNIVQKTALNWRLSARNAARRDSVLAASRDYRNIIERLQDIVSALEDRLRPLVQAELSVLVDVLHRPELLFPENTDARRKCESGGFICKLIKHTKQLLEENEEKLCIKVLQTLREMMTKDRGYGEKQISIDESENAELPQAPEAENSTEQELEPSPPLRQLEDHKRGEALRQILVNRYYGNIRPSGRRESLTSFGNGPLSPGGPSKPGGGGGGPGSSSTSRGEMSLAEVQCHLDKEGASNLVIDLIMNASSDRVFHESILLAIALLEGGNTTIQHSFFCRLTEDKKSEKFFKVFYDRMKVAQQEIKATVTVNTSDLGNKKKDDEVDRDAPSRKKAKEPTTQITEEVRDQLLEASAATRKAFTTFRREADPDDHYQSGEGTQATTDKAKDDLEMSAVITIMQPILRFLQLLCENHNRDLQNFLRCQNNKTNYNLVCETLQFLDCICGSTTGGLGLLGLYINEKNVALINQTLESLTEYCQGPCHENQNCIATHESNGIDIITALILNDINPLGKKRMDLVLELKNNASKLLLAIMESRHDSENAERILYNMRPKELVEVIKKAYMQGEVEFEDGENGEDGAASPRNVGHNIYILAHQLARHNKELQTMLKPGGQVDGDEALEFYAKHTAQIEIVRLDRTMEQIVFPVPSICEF
Description: (A) 0.2 μg of GST-EL was incubated with 0.1, 1, or 10 μg of purified His-tagged IRBIT expressed in Sf9 cells or E. coli in a solution containing 50 mM Tris-HCl (pH 8.0), 1 mM EDTA, and 1 mM 2-mercaptoethanol, for 30 min on ice. Then 8.7 nM [^3H]IP3 (PerkinElmer Life Sciences) was added to the samples and incubated for 10 min on ice (total volume was 50 μl). The samples were mixed with 2 μl of 50 mg/ml γ-globulin and 50 μl of 30% PEG6000, 50 mM Tris-HCl (pH 8.0), and incubated for 5 min on ice. Non-specific binding was measured in the presence of 10 μM cold IP3. After centrifugation at 20,000×g for 5 min, the precipitate was dissolved in SOLVABLE™ (Packard) and the radioactivity was measured with a liquid scintillation counter (Beckman Coulter). Results are shown as the mean±S.D. from three independent experiments. (B) Purified His-IRBIT expressed in Sf9 cells was incubated with alkaline phosphatase for 30 min at 37° C. prior to the IP3 binding assay described as in (A). (C and D) Scatchard analysis. 0.1 μg of GST-EL was incubated with or without 1 μg of purified His-tagged IRBIT expressed in Sf9 cells as described in (A). Then 2.17 nM [^3H]IP3 and 2-500 nM cold IP3 were added to the samples and incubated for 10 min on ice (total volume was 100 μl). Non-specific binding was measured in the presence of 10 μM cold IP3. [^3H]IP3 binding to GST-EL was measured as described in (A).
The effect of IRBIT on binding of IP3 to IP3R was examined. GST-EL (0.2 μg) was incubated with 0.1, 1, or 10 μg of purified His-tagged IRBIT expressed in Sf9 cells or E. coli in a solution containing 50 mM Tris-HCl (pH 8.0), 1 mM EDTA, and 1 mM 2-mercaptoethanol, for 30 min on ice. Then 8.7 nM [^3H]IP3 (PerkinElmer Life Sciences) was added to the samples and incubated for 10 min on ice (total volume was 50 μl). The samples were mixed with 2 μl of 50 mg/ml γ-globulin and 50 μl of 30% PEG6000, 50 mM Tris-HCl (pH 8.0), and incubated for 5 min on ice. Non-specific binding was measured in the presence of 10 μM cold IP3. After centrifugation at 20,000×g for 5 min, the precipitate was dissolved in SOLVABLE™ (Packard) and the radioactivity was measured with a liquid scintillation counter (Beckman Coulter). […] 0.1 μg of GST-EL was incubated with or without 1 μg of purified His-tagged IRBIT expressed in Sf9 cells as described in (A). Then 2.17 nM [^3H]IP3 and 2-500 nM cold IP3 were added to the samples and incubated for 10 min on ice (total volume was 100 μl). Non-specific binding was measured in the presence of 10 μM cold IP3. [^3H]IP3 binding to GST-EL was measured as described in (A). […] Bmax was not changed.

[2] = S-adenosylhomocysteine hydrolase activity in the hydrolytic direction; type: biochemical; details: recombinant protein expressed in Escherichia coli; hydrolysis direction
Description: The S-adenosylhomocysteine hydrolase activity in the hydrolytic direction of recombinant IRBIT-His (open circle), GST-IRBIT (triangle), GST (square), and S-adenosylhomocysteine hydrolase (closed circle) were measured according to the known method (43). Results are shown as the mean±standard deviation from three independent experimental results.
To assay S-adenosylhomocysteine hydrolase activity in the hydrolytic direction, the color developed by the reaction between the product (Homocysteine) and 5,5′-dithiobis (2-nitrobenzoic acid) (Sigma) was measured spectroscopically using the purified IRBIT-His (3.0 μg), GST-IRBIT (4.3 μg), GST (1.3 μg) and rabbit S-adenosylhomocysteine hydrolase (Sigma) (2.4 μg), according to the known method (43). Absorbance at 412 nm was measured 0, 5, 20 and 60 minutes later using a DU 640 spectrophotometer (Beckman). Results are shown as the mean±standard deviation from three independent experiments (FIG. 2).

[3] = 1 μg His-tagged IRBIT (Sf9), 0.1 μg GST-EL

Molecule | Bmax (Scatchard analysis) [1, 3] | affinity of GST-EL to IP3 (Scatchard analysis) [1, 3] | effect on IP3 binding of GST-EL ([1]; 0.1, 1 or 10 μg His-tagged IRBIT expressed in Sf9, 8.7 nM [3H]IP3) | S-adenosylhomocysteine hydrolase activity [2]
B1 | not changed | decreased the affinity | dose-dependently suppressed | 
B2 |  |  |  | neither of the recombinant IRBITs had enzyme activity
B3 |  |  |  | neither of the recombinant IRBITs had enzyme activity
